# Data taken from patent publication US20090203598A1.
# Molecular target: ShB-IR (Shaker ShB variant with inactivation removed) (UniProt P08510)
# Assay: cell-based or functional assay
# Sequence of ShB-IR (Shaker ShB variant with inactivation removed) (P08510 other isoform, or with tags, fused parts or gaps mutant): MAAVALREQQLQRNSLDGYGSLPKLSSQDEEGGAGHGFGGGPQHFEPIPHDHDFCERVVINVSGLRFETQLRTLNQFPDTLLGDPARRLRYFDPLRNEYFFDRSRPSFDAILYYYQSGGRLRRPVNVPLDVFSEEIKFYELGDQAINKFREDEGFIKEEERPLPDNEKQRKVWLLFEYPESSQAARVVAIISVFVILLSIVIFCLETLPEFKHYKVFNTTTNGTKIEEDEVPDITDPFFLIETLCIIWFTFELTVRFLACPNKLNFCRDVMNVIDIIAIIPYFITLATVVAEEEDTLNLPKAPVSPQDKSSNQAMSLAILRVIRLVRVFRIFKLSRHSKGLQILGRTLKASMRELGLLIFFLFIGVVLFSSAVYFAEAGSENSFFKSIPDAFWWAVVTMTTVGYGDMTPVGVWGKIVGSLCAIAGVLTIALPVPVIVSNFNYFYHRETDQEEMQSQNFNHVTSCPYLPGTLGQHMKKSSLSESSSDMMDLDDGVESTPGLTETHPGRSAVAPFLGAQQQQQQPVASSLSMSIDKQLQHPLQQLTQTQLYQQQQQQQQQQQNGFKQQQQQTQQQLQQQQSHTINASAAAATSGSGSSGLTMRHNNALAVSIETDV
substance,measurement,value
recombinant charybdotoxin (ChTx) (from UniProt P13487 23-59) (peptide),"inhibition of ShB-IR currents by 24 nM recombinant ChTx, two-electrode voltage clamp",15%
